{"source": "patent US20120282269A1", "about": "(Boehringer Ingelheim, published 2012)", "binders": {"B1": {"name": "Antibody B (antibody, human IgG1, kappa, L234A L235A, V domains shown)", "VH": "QVQLVQSGAEVKKPGSSVKVSCKASGFTFTDQTIHWVRQAPGQGLEWMGYIYPRDDSPKYNENFKGKVTLTADKSTSTAYMELSSLRSEDTAVYYCAIPDRSGYAWFIYWGQGTLVTVSS", "VL": "DIQMTQSPSSLSASVGDRVTITCKASRDVAIAVAWYQQKPGKVPKLLIYWASTRHTGVPSRFSGSGSRTDFTLTISSLQPEDVADYFCHQYSSYPFTFGSGTKLEIKR"}, "B2": {"name": "Antibody C (antibody, human IgG1, kappa, L234A L235A, V domains shown)", "VH": "B1 VH with F27Y, V37M, M48I, L70I", "VL": "B1 VL with I48L, Y49F, S60D, R68G, V83L, F87Y, S100Q"}, "B3": {"name": "Antibody D (antibody, human IgG1, kappa, L234A L235A, V domains shown)", "VH": "B1 VH", "VL": "B1 VL with I48L, Y49F, S60D, R68G, V83L, F87Y, S100Q"}, "B4": {"name": "Antibody C1273 (disclosed in WO 2007/005955) (antibody, from another filing, V domains shown)", "VH": "DVNLVESGGGLVKPGGSLKLSCAASGFTFSSYTMSWVRQTPEKRLEWVATISSGGTYTYYPDSVKGRFTISRDNAKNTLYLQMSSLKSEDTAMFYCTRDNHAYDRGPFFDYWGQGATLTVSS", "VL": "DIVMSQSPSSLVVSVGEKVTMSCKSSQNLFYRSNQKNHLAWYQQKPGQSPTLLIYWTSTRESGVPDRFTGSGSGTDFTLTISRVKAEDLAVYYCQQYYSYPPTFGGGTKLEIK"}, "B5": {"name": "Antibody 6H12 (disclosed in WO 2007/027714) (antibody, from another filing, V domains shown)", "VH": "EVHLQQSGPELVKPGASVKMSCKASGYTFNRYLIHWVKQKPGQGLEWIGYINPNNDGTNYNEKFKGKATLTSDKSSSTAYMELSSLTSEDSAVYYCAANWDQAYWGQGTLVTVSA", "VL": "DIVMTQSPATLSVTPGDRVSLSCRASQSISDYLHWYQQKSHESPRLLIKYTSQSISGIPSRFSGSGSGSDFTLSINSVEPEDVGVYYCQNGHSFPFTFGSGTKLEIKR"}}, "assay_in_all_cases": "cell-based or functional assay", "key": {"[1]": {"target": "T1, recombinant human IL-23 (human, UniProt P29460 23-328)", "T1 sequence 1": "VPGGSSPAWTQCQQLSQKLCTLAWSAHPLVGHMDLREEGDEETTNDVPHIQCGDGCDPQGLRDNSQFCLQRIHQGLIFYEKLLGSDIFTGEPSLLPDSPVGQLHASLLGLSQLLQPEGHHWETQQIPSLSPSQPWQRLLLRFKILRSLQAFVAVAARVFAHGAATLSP", "T1 sequence 2": "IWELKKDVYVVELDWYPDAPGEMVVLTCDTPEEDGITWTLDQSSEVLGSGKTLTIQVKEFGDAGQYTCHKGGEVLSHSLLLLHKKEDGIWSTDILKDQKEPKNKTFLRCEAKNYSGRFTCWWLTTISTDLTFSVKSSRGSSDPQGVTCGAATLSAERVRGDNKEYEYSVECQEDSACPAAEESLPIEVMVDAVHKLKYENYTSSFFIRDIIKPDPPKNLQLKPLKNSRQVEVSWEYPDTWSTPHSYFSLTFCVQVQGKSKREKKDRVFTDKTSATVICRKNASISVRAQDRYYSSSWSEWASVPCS"}, "[2]": {"target": "T2, natural human IL-23 from activated THP-1 cells (human, UniProt P29460 23-328)", "T2 sequence 1": "T1 sequence 1", "T2 sequence 2": "T1 sequence 2"}, "[3]": {"target": "T3, human IL-12 (human, UniProt P29459 23-219; P29460 23-328)", "T3 sequence (looked up) 1": "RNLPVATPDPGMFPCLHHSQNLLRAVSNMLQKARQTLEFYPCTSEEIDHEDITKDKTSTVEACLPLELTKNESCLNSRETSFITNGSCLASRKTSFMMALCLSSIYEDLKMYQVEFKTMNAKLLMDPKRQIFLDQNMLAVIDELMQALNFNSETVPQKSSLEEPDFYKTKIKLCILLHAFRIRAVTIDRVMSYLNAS", "T3 sequence (looked up) 2": "T1 sequence 2"}, "[4]": {"target": "T1, recombinant human IL-23", "remark": "listed apart in the source"}, "[5]": {"target": "recombinant human IL-23 (human) (UniProt P29460)"}, "[6]": {"target": "natural human IL-23 from activated THP-1 cells (human) (UniProt P29460)"}, "[7]": {"target": "T1, recombinant human IL-23", "remark": "listed apart in the source"}}, "note": "Residue numbers refer to the chain shown, from its start. “And” between values parts separate entries of the source, which are not always exact repeats. Identical values can stand only once. Like-named read-outs stand apart in the source and are kept apart here.", "data": [{"binder": "B1", "values": [{"measurement": "IC50, inhibition of IL-23 induced STAT3 phosphorylation in human DB cells", "setting": "[1]", "value": "73 pM and 84 pM"}, {"measurement": "IC50, inhibition of IL-17 production from IL-23 stimulated mouse splenocytes", "setting": "[2]", "value": "9 pM and 8 pM"}, {"measurement": "Average pg/ml IFN-γ +/- Standard Deviation, human PHA-derived T cell blasts with 1 ng/ml IL-12 (no antibody: 532 +/- 51; unstimulated: 87 +/- 7)", "setting": "[3]", "value": 537, "unit": "pg/mL"}]}, {"binder": "B2", "values": [{"measurement": "IC50, inhibition of IL-23 induced STAT3 phosphorylation in human DB cells", "setting": "[1]", "value": "132 pM and 80 pM"}, {"measurement": "IC50, inhibition of IL-17 production from IL-23 stimulated mouse splenocytes", "setting": "[2]", "value": "16 pM and 32 pM"}, {"measurement": "Average pg/ml IFN-γ +/- Standard Deviation, human PHA-derived T cell blasts with 1 ng/ml IL-12 (no antibody: 532 +/- 51; unstimulated: 87 +/- 7)", "setting": "[3]", "value": 495, "unit": "pg/mL"}]}, {"binder": "B3", "values": [{"measurement": "IC50, inhibition of IL-23 induced STAT3 phosphorylation in human DB cells", "setting": "[1]", "value": 158, "unit": "pM"}, {"measurement": "IC50, inhibition of IL-17 production from IL-23 stimulated mouse splenocytes", "setting": "[2]", "value": "133 pM and 125 pM"}, {"measurement": "IC50, inhibition of IL-17 production from IL-23 stimulated mouse splenocytes", "setting": "[4]", "value": "236 pM and 225 pM and 614 pM and 458 pM"}, {"measurement": "Average pg/ml IFN-γ +/- Standard Deviation, human PHA-derived T cell blasts with 1 ng/ml IL-12 (no antibody: 532 +/- 51; unstimulated: 87 +/- 7)", "setting": "[3]", "value": 539, "unit": "pg/mL"}]}, {"binder": "B4", "values": [{"measurement": "IC50, inhibition of IL-23 induced STAT3 phosphorylation in human DB cells", "setting": "[5]", "value": "163 pM and 438 pM"}, {"measurement": "IC50, inhibition of IL-17 production from IL-23 stimulated mouse splenocytes", "setting": "[6]", "value": "93 pM and 44 pM"}]}, {"binder": "B5", "values": [{"measurement": "IC50, inhibition of IL-17 production from IL-23 stimulated mouse splenocytes", "setting": "[7]", "value": "1600 pM and 806 pM and 1300 pM"}]}]}
